PMC9943875, “Agonist-controlled competition of RAR and VDR nuclear receptors for heterodimerization with RXR is manifested in their DNA binding” (The Journal of Biological Chemistry, 2023)
Values belong to the binder of their own block, whether it stands above or below them.

Legend:
[1] = target: mCherry-RXR (retinoid X receptor alpha, N-terminally tagged with mCherry) (UniProt P19793)
[2] = target: TagBFP-RXR (retinoid X receptor alpha tagged with TagBFP) (UniProt P19793)
[3] = target: T1, mCherry-RXR (retinoid X receptor alpha, N-terminally tagged with mCherry) (UniProt P19793 1-462); assay: cell-based or functional assay
T1 sequence (looked up): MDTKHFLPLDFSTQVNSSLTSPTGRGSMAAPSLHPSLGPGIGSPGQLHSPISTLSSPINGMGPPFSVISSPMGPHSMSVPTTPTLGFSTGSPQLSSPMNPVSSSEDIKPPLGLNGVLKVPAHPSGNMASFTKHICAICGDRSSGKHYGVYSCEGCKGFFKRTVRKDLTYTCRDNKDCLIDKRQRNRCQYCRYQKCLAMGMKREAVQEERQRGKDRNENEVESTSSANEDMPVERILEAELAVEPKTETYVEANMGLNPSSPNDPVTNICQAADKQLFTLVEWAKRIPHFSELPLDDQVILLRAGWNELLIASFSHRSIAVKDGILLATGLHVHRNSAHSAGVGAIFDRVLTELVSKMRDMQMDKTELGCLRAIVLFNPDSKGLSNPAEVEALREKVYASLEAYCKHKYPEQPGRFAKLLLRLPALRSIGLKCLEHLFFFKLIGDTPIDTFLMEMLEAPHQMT

slow (DNA-bound) fraction ρ2 of EGFP-RAR by FCS in live HEK293 cells cotransfected with mCherry-RXR, no ligand (∼22% for EGFP-RAR alone) [1]: 0.38
B1: EGFP-RAR (retinoic acid receptor alpha, N-terminally tagged with EGFP) (receptor)
chain: MASNSSSCPTPGGGHLNGYPVPPYAFFFPPMLGGLSPPGALTTLQHQLPVSGYSTPSPATIETQSSSSEEIVPSPPSPPPLPRIYKPCFVCQDKSSGYHYGVSACEGCKGFFRRSIQKNMVYTCHRDKNCIINKVTRNRCQYCRLQKCFEVGMSKESVRNDRNKKKKEVPKPECSESYTLTPEVGELIEKVRKAHQETFPALCQLGKYTTNNSSEQRVSLDIDLWDKFSELSTKCIIKTVEFAKQLPGFTTLTIADQITLLKAACLDILILRICTRYTPEQDTMTFSDGLTLNRTQMHNAGFGPLTDLVFAFANQLLPLEMDDAETGLLSAICLICGDRQDLEQPDRVDMLQEPLLEALKVYVRKRRPSRPHMFPKMLMKITDLRSISAKGAERVITLKMEIPGSMPPLIQEMLENSEGLDTLSGQPGGGGRDGGGLAPPPGSCSPSLSPSSNRSSPATHSP

slow fraction ρ2 of EGFP-RAR by FCS in triple-transfected cells (EGFP-RAR, mCherry-VDR, TagBFP-RXR), no ligand, against ρ2 ∼ 0.38 in cells with RAR and RXR only [2]: 0.32
slow (DNA-bound) fraction ρ2 of EGFP-VDR by FCS in live HEK293 cells, mCherry-RXR coexpressed and 100 nM calcitriol added together [3]: 2 fold
B2: EGFP-VDR (vitamin D receptor, N-terminally tagged with EGFP) (receptor, UniProt P11473 1-427, looked up)
chain: MEAMAASTSLPDPGDFDRNVPRICGVCGDRATGFHFNAMTCEGCKGFFRRSMKRKALFTCPFNGDCRITKDNRRHCQACRLKRCVDIGMMKEFILTDEEVQRKREMILKRKEEEALKDSLRPKLSEEQQRIIAILLDAHHKTYDPTYSDFCQFRPPVRVNDGGGSHPSRPNSRHTPSFSGDSSSSCSDHCITSSDMMDSSSFSNLDLSEEDSDDPSVTLELSQLSMLPHLADLVSYSIQKVIGFAKMIPGFRDLTSEDQIVLLKSSAIEVIMLRSNESFTMDDMSWTCGNQDYKYRVSDVTKAGHSLELIEPLIKFQVGLKKLNLHEEEHVLLMAICIVSPDRPGVQDAALIEAIQDRLSNTLQTYIRCRHPPPGSHLLYAKMIQKLADLRSLNEEHSKQYRCLSFQPECSMKLTPLVLEVFGNEIS
